Test results as given in patent publication US20200109188A1 (AstraZeneca / MedImmune, published 2020).
Substitutions are numbered along the chain they refer to.

B1: Antibody 3 (antibody, V domains shown)
VH: QVQLQESGPGLVKPSQTLSLTCAISGDSVSSNNAVWNWIRQSPSRGLEWLGRTYYRSKWYNDYAESVKSRITVNPDTSKNQFSLHLKSVTPEDTAVFYCVRSGHITVFGVNVDAFDMWGQGTMVTVSS
VL: DIQMTQSPSSLSASVGDRVTITCRTSQSLSSYLHWYQQKPGKAPKLLIYAASSLQSGVPSRFSGSGSGTDFTLTISSLQPEDFATYYCQQSRTFGQGTKVEIK
B2: Antibody 5 (antibody, V domains shown)
VH: QVQLQQSGPGLVKPSQTLSLTCAISGDRVSSNSAVWNWIRQSPSRGLEWLGRTYYRSKWYYDYAESVKSRIVIDPDTSKNQVSLQLNSVTPEDSAIYYCARGGHITVFGLNIDAYDIWGQGAMVTVSS
VL: DIQMTQSPSSLSASVGDRVTISCRAQSLSSYLHWYQQKPGQPPKLLIYAATTLQSGVPSRFSGSGSGTDFTLTISTFQAEDVATYYCQQSRTFGQGTKVEIK
B3: Antibody 6 (antibody, V domains shown)
VH: B2 VH with V107E
VL: B2 VL
B4: Antibody 8 (antibody, V domains shown)
VH: QVQLQQSGPGLVKPSQTLSLTCVISGDTVSSNRATWNWMRQSPLRGLEWLGRTYYRSKWYNDYAVSVKSRVVINPDTSKNQVSLQLNTVTPDDSGVYFCARGGHITVFGVNIDAFDIWGLGTKVTVSS
VL: DIQMTQSPSSLSASVGDRVTISCRASQRLNSYLHWYQQTPGQAPKLLIYATSTLQSGVSPRFSGSGSGTDFTLTISSLQPEDVATYYCQLSRTFGHGTKVEIK
B5: Antibody 10 (antibody, V domains shown)
VH: QVQLQQSGPGLVKPSQTLSLTCAISGDSVSSNSATWNWIRQSPSRGLEWLGRTYYRSKWYNDYADFLKRRITINPDTSNNEVSLRLTSVTPDDTALYYCARGGHITVFGVNIDAFDVWGQGTMVTVSS
VL: B1 VL with V19I, T22S, S30R, A51S, S53T, S77N, Q90L
B6: Antibody 11 (antibody, V domains shown)
VH: B1 VH with E6Q, N32Y, K58G, V73I, H85Q, K87N, F97Y, V100A
VL: B1 VL with L33T, L54R, Q55L
B7: Antibody 12 (antibody, V domains shown)
VH: B1 VH with E6Q, N32Y, K58G, V73I, H85Q, K87N, F97Y, V100A
VL: B1 VL with L33T, L54R, Q55G
B8: Antibody 13 (antibody, V domains shown)
VH: B1 VH with E6Q, N32Y, K58G, V73I, H85Q, K87N, F97Y, V100A
VL: B1 VL with L33D, L54R, Q55L
B9: Antibody 14 (antibody, V domains shown)
VH: B1 VH with E6Q, V73I, H85Q, K87N, F97Y, V100A, M123T
VL: B1 VL with L33T, L54R, Q55L
B10: Antibody 15 (antibody, V domains shown)
VH: B1 VH with E6Q, V73I, H85Q, K87N, F97Y, V100A, M123T
VL: B1 VL with L33T, L54R, Q55G

Molecular target: HA of ca A/Wuhan/359/95 (H3N2) virus (influenza A virus)
Experiment: cell-based or functional assay

B1 and B2 are within 1.5-fold of each other in “Neutralization IC50, H3-WH95” value: 3.96 µg/mL for the first, 3.72 µg/mL for the second.

Going from B3 to B4, the “Neutralization IC50, H3-WH95” value rises from 10.5 µg/mL to > 50 µg/mL.

In the case of B5, the “Neutralization IC50, H3-WH95” value is reported as 8.7 µg/mL.

Molecular target: HA of A/Fort Monmouth/1/47 (H1N1) virus (influenza A virus)
Experiment: cell-based or functional assay

First: B6
Second: B7
The “Neutralization IC50, H1-FM47” value of the first is 1.5-fold higher: 0.43 µg/mL for the first, 0.28 µg/mL for the second.

B8 and B9 are within 1.5-fold of each other in “Neutralization IC50, H1-FM47” value: 0.5 µg/mL for the first, 0.44 µg/mL for the second.

In the case of B10, the “Neutralization IC50, H1-FM47” value is reported as 0.35 µg/mL.

Molecular target: HA of A/Kawasaki/9/86 (H1N1) virus (influenza A virus)
Experiment: cell-based or functional assay

Compared with B6, B7 is 1.9-fold lower in “Neutralization IC50, H1-Kaw86” value: 0.53 µg/mL for the first, 0.28 µg/mL for the second.

B8 and B9 are within 1.5-fold of each other in “Neutralization IC50, H1-Kaw86” value: 0.41 µg/mL for the first, 0.35 µg/mL for the second.

In the case of B10, the “Neutralization IC50, H1-Kaw86” value is reported as 0.48 µg/mL.

Molecular target: HA of ca A/Texas/36/91 (H1N1) virus (influenza A virus)
Experiment: cell-based or functional assay

B6 and B7 are within 1.5-fold of each other in “Neutralization IC50, H1-TX91” value: 0.11 µg/mL for the first, 0.12 µg/mL for the second.

B8 and B9 are the same in “Neutralization IC50, H1-TX91” value: 0.09 µg/mL for the first, 0.09 µg/mL for the second.

With B10 the “Neutralization IC50, H1-TX91” value was 0.13 µg/mL.

Molecular target: HA of ca A/Beijing/262/95 (H1N1) virus (influenza A virus)
Experiment: cell-based or functional assay

B6 and B7 are within 1.5-fold of each other in “Neutralization IC50, H1-BJ95” value: 1.01 µg/mL for the first, 1.31 µg/mL for the second.

B8 and B9 are within 1.5-fold of each other in “Neutralization IC50, H1-BJ95” value: 1.86 µg/mL for the first, 2.09 µg/mL for the second.

In the case of B10, the “Neutralization IC50, H1-BJ95” value is reported as 1.81 µg/mL.

Molecular target: HA of ca A/New Caledonia/20/99 (H1N1) virus (influenza A virus)
Experiment: cell-based or functional assay

B6 and B7 are within 1.5-fold of each other in “Neutralization IC50, H1-Ncal99” value: 0.66 µg/mL for the first, 0.61 µg/mL for the second.

B8 and B9 are within 1.5-fold of each other in “Neutralization IC50, H1-Ncal99” value: 0.77 µg/mL for the first, 0.67 µg/mL for the second.

For B10, the “Neutralization IC50, H1-Ncal99” value was 0.79 µg/mL.

Molecular target: HA of H1-BS10 virus
Experiment: cell-based or functional assay

B6 and B7 are within 1.5-fold of each other in “Neutralization IC50, H1-BS10” value: 1.15 µg/mL for the first, 1.25 µg/mL for the second.

Compared with B8, B9 is 1.6-fold higher in “Neutralization IC50, H1-BS10” value: 1.23 µg/mL for the first, 1.93 µg/mL for the second.

B10 was tested, and the “Neutralization IC50, H1-BS10” value was 1.89 µg/mL.

Molecular target: HA of A/Hong Kong/8/68 (H3N2) virus (influenza A virus)
Experiment: cell-based or functional assay

B6 and B7 are within 1.5-fold of each other in “Neutralization IC50, H3-HK68” value: 0.46 µg/mL for the first, 0.42 µg/mL for the second.

B8 and B9 are within 1.5-fold of each other in “Neutralization IC50, H3-HK68” value: 0.44 µg/mL for the first, 0.65 µg/mL for the second.

For B10, the “Neutralization IC50, H3-HK68” value was 0.5 µg/mL.

Molecular target: HA of A/Victoria/3/75 (H3N2) virus (influenza A virus, UniProt P03435 17-567)
Sequence (P03435 17-567 limits assumed): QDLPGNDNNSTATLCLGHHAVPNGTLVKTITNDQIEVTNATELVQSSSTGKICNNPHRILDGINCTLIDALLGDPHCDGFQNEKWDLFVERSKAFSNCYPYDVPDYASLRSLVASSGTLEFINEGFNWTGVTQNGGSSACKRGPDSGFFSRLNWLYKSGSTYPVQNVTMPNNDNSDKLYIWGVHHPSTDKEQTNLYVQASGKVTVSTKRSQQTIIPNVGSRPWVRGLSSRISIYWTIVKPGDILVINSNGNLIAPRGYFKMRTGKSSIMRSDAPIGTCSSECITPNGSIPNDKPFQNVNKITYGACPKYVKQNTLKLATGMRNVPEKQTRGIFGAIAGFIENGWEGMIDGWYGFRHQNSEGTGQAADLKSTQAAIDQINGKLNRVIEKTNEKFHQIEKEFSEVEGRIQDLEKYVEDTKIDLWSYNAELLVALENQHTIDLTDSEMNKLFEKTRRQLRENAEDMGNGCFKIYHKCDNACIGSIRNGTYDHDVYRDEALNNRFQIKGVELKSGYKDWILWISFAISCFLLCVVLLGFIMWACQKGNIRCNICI
Experiment: cell-based or functional assay

B6 and B7 are within 1.5-fold of each other in “Neutralization IC50, H3-Vic75” value: 0.46 µg/mL for the first, 0.32 µg/mL for the second.

B8 and B9 are within 1.5-fold of each other in “Neutralization IC50, H3-Vic75” value: 0.43 µg/mL for the first, 0.44 µg/mL for the second.

With B10 the “Neutralization IC50, H3-Vic75” value was 0.35 µg/mL.

Molecular target: HA of H3-LA87 (A/Los Angeles/7/09 (H3N2)) virus (influenza A virus)
Experiment: cell-based or functional assay

B6 and B7 are within 1.5-fold of each other in “Neutralization IC50, H3-LA87” value: 0.8 µg/mL for the first, 0.82 µg/mL for the second.

B8 and B9 are within 1.5-fold of each other in “Neutralization IC50, H3-LA87” value: 1 µg/mL for the first, 0.83 µg/mL for the second.

For B10, the “Neutralization IC50, H3-LA87” value was 0.83 µg/mL.

Molecular target: HA of ca A/Wuhan/359/95 (H3N2) virus (influenza A virus)
Experiment: cell-based or functional assay
Remark: another data set of the same source

First: B6
Second: B1
The “Neutralization IC50, H3-WH95” value of the first is 2.3-fold lower: 2.45 µg/mL for the first, 5.63 µg/mL for the second.

B7 and B8 are within 1.5-fold of each other in “Neutralization IC50, H3-WH95” value: 2.09 µg/mL for the first, 2.77 µg/mL for the second.

B9 and B10 are within 1.5-fold of each other in “Neutralization IC50, H3-WH95” value: 2.77 µg/mL for the first, 3.32 µg/mL for the second.

Going from B6 to B1, the “Neutralization IC50, H3-WH95-OR” value rises from 2.26 µg/mL to 7.7 µg/mL (3.4-fold).

B7 and B8 are within 1.5-fold of each other in “Neutralization IC50, H3-WH95-OR” value: 2.34 µg/mL for the first, 3.01 µg/mL for the second.

B9 and B10 are within 1.5-fold of each other in “Neutralization IC50, H3-WH95-OR” value: 3.09 µg/mL for the first, 3.48 µg/mL for the second.

Molecular target: HA of ca A/Sydney/5/97 (H3N2) virus (influenza A virus)
Experiment: cell-based or functional assay

B6 and B7 are within 1.5-fold of each other in “Neutralization IC50, H3-Syd97” value: 1.53 µg/mL for the first, 1.56 µg/mL for the second.

B8 and B9 are within 1.5-fold of each other in “Neutralization IC50, H3-Syd97” value: 2.18 µg/mL for the first, 1.82 µg/mL for the second.

In the case of B10, the “Neutralization IC50, H3-Syd97” value is reported as 1.79 µg/mL.

Molecular target: HA of ca A/Panama/2007/99 (H3N2) virus (influenza A virus)
Experiment: cell-based or functional assay

B6 and B8 are within 1.5-fold of each other in “Neutralization IC50, H3-Pa99” value: 2.18 µg/mL for the first, 2.62 µg/mL for the second.

B9 and B10 are within 1.5-fold of each other in “Neutralization IC50, H3-Pa99” value: 4.36 µg/mL for the first, 3.39 µg/mL for the second.

Molecular target: HA of A/Wisconsin/67/05 (H3N2) virus (influenza A virus)
Experiment: cell-based or functional assay

B6 and B8 are within 1.5-fold of each other in “Neutralization IC50, H3-Wl05” value: 1.07 µg/mL for the first, 1.19 µg/mL for the second.

B9 and B10 are within 1.5-fold of each other in “Neutralization IC50, H3-Wl05” value: 1.19 µg/mL for the first, 1.3 µg/mL for the second.

Molecular target: HA of ca A/Perth/16/09 (H3N2) virus (influenza A virus)
Experiment: cell-based or functional assay

B6 and B7 are within 1.5-fold of each other in “Neutralization IC50, H3-Perth09” value: 0.17 µg/mL for the first, 0.25 µg/mL for the second.

Going from B8 to B9, the “Neutralization IC50, H3-Perth09” value rises from 0.28 µg/mL to 0.47 µg/mL (1.7-fold).

With B10 the “Neutralization IC50, H3-Perth09” value was 0.5 µg/mL.

Molecular target: HA of A/Victoria/361/11 (H3N2) virus (influenza A virus)
Experiment: cell-based or functional assay

B6 and B7 are within 1.5-fold of each other in “Neutralization IC50, H3-VC11” value: 0.85 µg/mL for the first, 0.83 µg/mL for the second.

B8 and B9 are within 1.5-fold of each other in “Neutralization IC50, H3-VC11” value: 1.03 µg/mL for the first, 1.15 µg/mL for the second.

B10 was tested, and the “Neutralization IC50, H3-VC11” value was 1.29 µg/mL.

Molecular target: HA of A/Puerto Rico/8/34 (H1N1) virus (influenza A virus, UniProt P03452 18-565)
Sequence (P03452 18-565 limits assumed): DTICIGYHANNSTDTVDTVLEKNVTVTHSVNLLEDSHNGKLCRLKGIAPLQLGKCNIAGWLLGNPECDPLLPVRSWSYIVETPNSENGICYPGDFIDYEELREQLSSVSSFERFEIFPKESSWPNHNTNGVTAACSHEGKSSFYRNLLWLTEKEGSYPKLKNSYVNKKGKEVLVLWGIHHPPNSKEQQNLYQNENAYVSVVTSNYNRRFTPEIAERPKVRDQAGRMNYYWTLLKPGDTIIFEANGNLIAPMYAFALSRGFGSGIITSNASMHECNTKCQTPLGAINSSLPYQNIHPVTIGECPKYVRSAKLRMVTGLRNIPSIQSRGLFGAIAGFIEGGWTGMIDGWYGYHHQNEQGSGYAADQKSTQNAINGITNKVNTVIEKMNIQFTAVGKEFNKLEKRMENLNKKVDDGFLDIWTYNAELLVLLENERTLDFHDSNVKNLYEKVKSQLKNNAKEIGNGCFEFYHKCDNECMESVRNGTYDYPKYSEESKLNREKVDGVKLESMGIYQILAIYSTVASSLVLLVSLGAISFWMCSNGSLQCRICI
Experiment: cell-based or functional assay

B1 and B7 are within 1.5-fold of each other in “IC50 (read off the curve)” value: ~600 ng/mL for the first, ~500 ng/mL for the second.
